From patent US9090676B2, “Method for treating Helicobacter pylori infections” (priority 2006, dated 2015)
“Also recorded” adds a separate entry of the source.

Columns and labels:
[1] = test system: gamma glutamyl transpeptidase of Helicobacter pylori (HPGGT); assay: GGT activity assay: inhibition of GGT by acivicin; type: biochemical
Protocol: (§1) The assay for GGT activity was adapted from the method of Meister et al.^27 Briefly, reaction buffer consisting of 20 mM glycyl-glycine (Sigma) as acceptor, 2.5 mM L-γ-glutamyl-p-nitroanilide (Calbiochem, Schwalbach, Germany) as donor substrate and 100 mM Tris-HCl (pH 8.0) was prepared. In some experiments pH of assay buffer was varied between 2 and 10. Supernatants of different H. pylori strains, purified recombinant HPGGT or equine kidney GGT (Sigma) were added and the reaction proceeded at 37° C. for 30 min. The release of p-nitroanilide was monitored by spectrophotometry at 405 nm. One unit of activity was defined as the quantity of enzyme that released 1 μmol of p-nitroanilide per min and per mg of protein at 37° C.
This compound acts as an irreversible and competitive inhibitor of GGT. […] Similar results were obtained for recombinant HPGGT (data not shown).

human PBMC = assay: Cell proliferation assay (3H-thymidine incorporation), stimulated PBMC; type: cell-based
Protocol: Isolation of peripheral blood lymphocytes (PBMC) was performed as described previously^3. All cells were incubated at 37° C. with 5% CO2. Jurkat T cells and PBMC were cultured in RPMI 1640 (Invitrogen, Karlsruhe, Germany) with 10% FCS. EL-4 T cells were cultured in DMEM (Invitrogen) supplemented with 10% horse serum (Cambrex, Verviers, Belgium).
Cells (10^5 PBMC, purified primary T cells or 10^4 Jurkat/EL-4 cells/well) were cultured in 96-well flat-bottom plates in complete medium. PBMC were stimulated in triplicate with PMA (20 ng/ml; Sigma) and Ionomycin (100 ng/ml; Sigma) and all cells were grown with or without indicated total protein concentrations of H. pylori supernatants or recombinant proteins. Primary human T cells were stimulated with either PMA/Ionomycin as described above or with anti-CD3/CD28 beads (Invitrogen) at 1 bead per T cell. Cellular proliferation was determined after 48 h by methyl-[^3H]-thymidine (GE Healthcare) incorporation using a Packard Direct Beta Counter Matrix 9600 (Packard Instruments Co, Downer's Grove, Ill.).

HPGGT = assay: Immunization of animals, sera assayed for inhibition of GGT catalytic activity; type: in vivo, Helicobacter pylori; details: mice, sera taken 6 weeks after immunization
Text: FIG. 9 is a diagram indicating the inhibitory effect of sera from immunized or infected mice on enzymatic activity of HPGGT. Mice were immunized with the indicated formulations or received PBS as control or were infected with live H. pylori. Sera were taken from tail veins 6 weeks after immunization or infection and assayed for inhibitory activity towards GGT catalytic activity.
as §1

Jurkat T cells [2] = assay: Analysis of apoptosis (Annexin V-FITC/PI, FACS); type: cell-based; details: 1 μM, 24 h
Protocol: 5×10^5 Jurkat T cells were treated as indicated. After 24 h cells were harvested by centrifugation, washed, resuspended in 500 μl AnnexinV-binding buffer (10 mM HEPES/NaOH, pH7.4, 140 mM NaCl, 2.5 mM CaCl2) and stained for 10 min each with 5 μl recombinant Annexin V-FITC (Caltag, Burlingame, Calif.) and 0.5 μg/ml PI at room temperature in the dark. Apoptotic cells were measured by FACS analysis (see above). Data were analyzed using Cell Quest software.

human PBMCs = assay: Immunoblotting of cell cycle regulatory proteins in PBMC; type: cell-based; details: 24 h and 48 h
Protocol: FIG. 6B an SDS PAGE of the proteins obtained from 10^7 PBMC which were incubated with different concentrations of HPWT and HPΔGGTSN or rHPGGT for 24 h and 48 h and subsequently lysed. 35 μg of total protein were separated by SDS-PAGE and analyzed by immunoblotting. Levels of indicated proteins were determined using the corresponding antibodies. Data were reproduced 2 times with similar results. (HP=H. pylori, SN=supernatant, WT=wild-type).
For immunoblot analysis 10^7 Jurkat T cells or PBMC were used. Prior to the experiment, Jurkat cells were serum starved for 18 h in medium containing 0.2% FCS. Afterwards, cells were released with 10% FCS and treated as depicted. At the indicated time points, the cells were harvested, washed once with ice-cold PBS, resuspended in 1× lysis buffer (Cell Signaling Technology, Danvers, Mass.) containing protease inhibitors (2.5 mM sodium pyrophosphate, 1 mM β-glycerophosphate, 1 mM Na3VO4, 1 μg/ml leupeptin, 1 mM PMSF; Sigma) and sonicated with a micro tip sonifier on ice for 30 sec. Lysates were centrifuged at 10000×g for 10 min at 4° C. and supernatants were used for immunoblotting. Equal amounts of protein (determined by Bradford assay, BioRad) were separated by Tricine-SDS-PAGE and electrotransferred onto nitrocellulose membranes (BioRad). […]

[3] = GGT activity assay: catalytic activity of GGT proteins and fractions; type: biochemical
Protocol: as §1

Jurkat T cells [4] = assay: Immunoblotting of cell cycle regulatory and signaling proteins; type: cell-based
Protocol: For immunoblot analysis 10^7 Jurkat T cells or PBMC were used. Prior to the experiment, Jurkat cells were serum starved for 18 h in medium containing 0.2% FCS. Afterwards, cells were released with 10% FCS and treated as depicted. At the indicated time points, the cells were harvested, washed once with ice-cold PBS, resuspended in 1× lysis buffer (Cell Signaling Technology, Danvers, Mass.) containing protease inhibitors (2.5 mM sodium pyrophosphate, 1 mM β-glycerophosphate, 1 mM Na3VO4, 1 μg/ml leupeptin, 1 mM PMSF; Sigma) and sonicated with a micro tip sonifier on ice for 30 sec. Lysates were centrifuged at 10000×g for 10 min at 4° C. and supernatants were used for immunoblotting. Equal amounts of protein (determined by Bradford assay, BioRad) were separated by Tricine-SDS-PAGE and electrotransferred onto nitrocellulose membranes (BioRad). For detection, membranes were probed with primary antibodies anti-p27, anti-Cyclin D3, anti-Cyclin E, anti-c-Myc (Dianova, Hamburg, Germany), anti-Cdk2 (Santa-Cruz Biotechnology, Heidelberg, Germany), anti-phospho-AKT (Ser 473), anti-phospho-c-Raf (Ser 338), anti-phospho-p70S6K (Thr 389; Cell Signaling), anti-phospho-FKHRL1/Foxo3 (Thr 32; Upstate, Lake Placid, N.Y.), anti-Actin (Sigma) and anti-VacA (Austral Biologicals, San Ramon, Calif.). […] For detection of the large subunit of the HPGGT protein a polyclonal rabbit anti-GGT antibody raised against a synthesized peptide IQPDTVTPSSQIKPGM including amino acid residues 356 to 371 of the HP 1118 gene product (Charles River, Kisslegg, Germany) was used.

IFN-γ = IFN-γ ELISA of PBMC supernatants; type: cell-based, human; details: PBMC stimulated with PMA and Ionomycin, 24 h
Protocol: (§2) PBMC (5×10^5 each) were treated for 24 h as depicted. At indicated time points cells were removed by centrifugation and supernatants were analyzed for amounts of IL-2 (eBioscience, San Diego, Calif.) and IFN-γ (Biosource, Solingen, Germany) by ELISA according to the manufacturer's instructions. The lower limits of detection were 4 pg/ml.
(§3) To date so far nothing was known about a role of HPGGT during suppression of the host's immune response. The inhibition of lymphocyte proliferation by HPGGT reported here might result from interference with cytokine secretion of human PBMCs. To test this hypothesis, cells were stimulated with PMA and Ionomycin and incubated with or without H. pylori wild-type and ΔGGT supernatants or recombinant HPGGT at different concentrations for 24 h. […] In addition secretion of IFN-γ was not reduced (FIG. 5B).

IL-2 = IL-2 ELISA of PBMC supernatants; type: cell-based, human; details: PBMC stimulated with PMA and Ionomycin, 24 h, compared to stimulated control
Protocol: as §2, §3

[5] = incubation of the HPGGT with acivicin
[6] = preincubation of HPWTSN with acivicin (50 μM) for 2 h at 37° C.

N[C@H](C(=O)O)[C@@H]1CC(Cl)=NO1 [acivicin]
catalytic activity of HPGGT after incubation with acivicin [1, 5]: completely abolishes | GGT activity of H. pylori wild-type supernatants after pretreatment with acivicin [1, 6]: abrogated; also recorded: completely repressed | inhibitory effect of the enzyme (HPGGT) towards lymphocytes after incubation with acivicin (human PBMC; [5]): completely abolishes | inhibition of PBMC proliferation by H. pylori wild-type supernatants after pretreatment with acivicin (human PBMC; [6]): abrogated; also recorded: completely repressed

IQPDTVTPSSQIKPGM [peptide 356-371, peptide of HPGGT residues 356 to 371, far from the catalytic center]
inhibitory antibodies / inhibitory immune response against HPGGT in serum (HPGGT): No inhibitory immune response

CN[C@@H]1C[C@H]2O[C@@](C)([C@@H]1OC)n1c3ccccc3c3c4c(c5c6ccccc6n2c5c31)C(=O)NC4 [staurosporin, reference compound]
apoptosis (positive control) (Jurkat T cells [2]): strongly induced apoptosis

B1: recombinant HPGGT: recombinant His-tagged gamma glutamyl transpeptidase of H. pylori expressed in E. coli (protein, listed as Helicobacter pylori)
chain: MRRSFLKTIGLGVIALFLGLLNPLSAASYPPIKNTKVGLALSSHPLASEIGQKVLEEGGNAIDAAVAIGFALAVVHPAAGNIGGGGFAVIHLANGENVALDFREKAPLKATKNMFLDKQGNVVPKLSEDGYLAAGVPGTVAGMEAMLKKYGTKKLSQLIDPAIKLAENGYAISQRQAETLKEARERFLKYSSSKKYFFKKGHLDYQEGDLFVQKDLAKTLNQIKTLGAKGFYQGQVAELIEKDMKKNGGIITKEDLASYNVKWRKPVVGSYRGYKIISMSPPSSGGTHLIQILNVMENADLSALGYGASKNIHIAAEAMRQAYADRSVYMGDADFVSVPVDKLINKAYAKKIFDTIQPDTVTPSSQIKPGMGQLHEGSNTTHYSVADRWGNAVSVTYTINASYGSAASIDGAGFLLNNEMDDFSIKPGNPNLYGLVGGDANAIEANKRPLSSMSPTIVLKNNKVFLVVGSPGGSRIITTVLQVISNVIDYNMNISEAVSAPRFHMQWLPDELRIEKFGMPADVKDNLTKMGYQIVTKPVMGDVNAIQVLPKTKGSVFYGSTDPRKEF
modifications: His-tag
notes: recombinant His-tagged gamma glutamyl transpeptidase of H. pylori expressed in E. coli
cell cycle regulating proteins (Cyclin D3, E1) in PBMC (human PBMCs): even stronger reduction | enzymatic GGT activity ([3]; pH 8.0, 37° C., 30 min): strong GGT activity | pH range of catalytic activity ([3]; pH of assay buffer varied between 2 and 10): 2-10 | Cyclin levels (Jurkat T cells [4]; 2 μg/ml): complete reduction | cellular levels and phosphorylation of AKT, p70S6k and Foxo 3 (PI3K-signaling) (Jurkat T cells [4]; Jurkat T cells and PBMC): not reduced | cellular levels of c-Myc and phosphorylation of c-Raf (Ras-dependent pathway) (Jurkat T cells [4]; Jurkat T cells and PBMC): reduced | secretion of IFN-γ (IFN-γ): not reduced | inhibition of PBMC proliferation (human PBMC; PBMC stimulated with PMA/Ionomycin, 48 h): efficiently inhibited | inhibitory effect of HPGGT on lymphocyte proliferation in the absence of glutamine (human PBMC; medium without the amino acid glutamine): completely abolished | reduction of IL-2 secretion (IL-2): none of these treatments led to reduction
